Measured values published in patent publication US20210395318A1 (Molecular Partners, published 2021).

Legend:
[1] = biological target: T1, biotinylated mouse CD40 (Acro Biosystem) (mouse, UniProt P27512 24-193, limits assumed, biotinylated (sites not given)); experiment: SPR (ProteOn XPR36), bio-mCD40 on NLC chip, Protein #5 as analyte
T1 construct: also called Bio-mCD40
T1 sequence (looked up): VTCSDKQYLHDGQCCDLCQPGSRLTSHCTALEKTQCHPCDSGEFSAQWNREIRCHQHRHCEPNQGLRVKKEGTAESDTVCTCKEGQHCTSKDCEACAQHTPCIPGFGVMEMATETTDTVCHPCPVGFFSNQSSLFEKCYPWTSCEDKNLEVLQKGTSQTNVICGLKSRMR
Protocol: (§1) All SPR measurements were performed using a ProteOn XPR36 instrument (BioRad) and a running buffer of PBS pH 7.4 containing 0.005% Tween 20® (PBST). The 1:1 Langmuir model was used for the fitting of SPR traces.
(§2) ProteOn setup for Protein #5 binding to CD40 of different species. CD40 proteins (Acro Biosystem) of different species (human, cynomolgus, mouse) were biotinylated with standard methods known in the art, resulting in bio-hCD40, bio-cCD40 and bio-mCD40 proteins. The bio-hCD40, bio-cCD40 and bio-mCD40 proteins were immobilized on an NLC chip (BioRad) to a level of respectively 300 RU, 250 RU and 300 RU. The interaction of Protein #5 with CD40 was measured by injecting Protein #5 in a serial dilution of 3, 1.5, 0.75, 0.38 and 0.19 nM with an association of 120 s and dissociation of 900 s using a constant flow of 100 μl/min. The measurement was repeated two or three times and the targets were regenerated between the individual measurements using 10 mM glycine pH 2 for 18 s at a flow of 100 μl/min. The signals were double referenced against the running buffer (PBST) treated control lanes.

mouse FAP = biological target: T2, mouse FAP (mouse, UniProt P97321 26-761, limits assumed); experiment: SPR (ProteOn XPR36), mFAP immobilized on GLC chip, Protein #5 as analyte
T2 construct: also called mFAP
T2 sequence (looked up): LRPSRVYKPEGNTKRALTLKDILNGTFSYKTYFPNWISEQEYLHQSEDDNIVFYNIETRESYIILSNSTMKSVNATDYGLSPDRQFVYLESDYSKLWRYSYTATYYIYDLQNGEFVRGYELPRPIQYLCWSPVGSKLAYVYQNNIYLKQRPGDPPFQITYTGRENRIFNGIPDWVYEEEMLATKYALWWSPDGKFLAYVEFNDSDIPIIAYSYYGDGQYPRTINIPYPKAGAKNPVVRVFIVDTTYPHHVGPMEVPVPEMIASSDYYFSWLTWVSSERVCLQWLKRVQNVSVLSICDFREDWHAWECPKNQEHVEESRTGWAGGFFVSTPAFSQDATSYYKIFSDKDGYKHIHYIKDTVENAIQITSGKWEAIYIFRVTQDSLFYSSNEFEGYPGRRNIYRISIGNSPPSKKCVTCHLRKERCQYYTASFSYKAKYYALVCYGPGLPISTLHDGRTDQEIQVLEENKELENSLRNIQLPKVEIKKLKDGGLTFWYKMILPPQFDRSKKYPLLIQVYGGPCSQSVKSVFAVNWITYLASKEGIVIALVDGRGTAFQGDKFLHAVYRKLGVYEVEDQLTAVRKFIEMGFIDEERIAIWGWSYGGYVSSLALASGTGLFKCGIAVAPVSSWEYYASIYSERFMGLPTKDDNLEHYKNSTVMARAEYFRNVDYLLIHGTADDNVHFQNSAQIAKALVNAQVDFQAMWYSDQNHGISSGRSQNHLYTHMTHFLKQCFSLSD
Protocol: as §1
ProteOn setup for Protein #5 binding to FAP of different species. hFAP, cynomolgus FAP (cFAP) and mouse FAP (mFAP) were immobilized on a GLC chip (BioRad) in 10 mM Na Acetate buffer pH5.3 to a level of 1200 RU, 800 RU and 2000 RU, respectively. The interaction of FAP and Protein #5 was measured by applying Protein #5 in a serial dilution of […] and 3.13 nM with an association of 120 s and dissociation of 1800 s using a constant flow of 100 μl/min. The targets were regenerated using 10 mM glycine pH 2 and 124 mM H₃PO₄. The signals were double referenced against the PBST treated control lanes.

[2] = biological target: T3, biotinylated human CD40 (Acro Biosystem) (human, UniProt P25942 21-193, biotinylated (sites not given)); experiment: SPR (ProteOn XPR36), biotinylated CD40 on NLC chip, Protein #5 as analyte, PBST, 1:1 Langmuir
T3 construct: Bought protein; also called Bio-hCD40; hCD40
T3 sequence (P25942 21-193 H80K/K81H limits assumed): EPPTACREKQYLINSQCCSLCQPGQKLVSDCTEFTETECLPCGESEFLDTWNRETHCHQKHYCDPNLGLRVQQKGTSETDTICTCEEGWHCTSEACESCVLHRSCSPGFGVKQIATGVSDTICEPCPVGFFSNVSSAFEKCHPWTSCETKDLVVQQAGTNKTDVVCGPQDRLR
Protocol: as §1, §2

[3] = biological target: T4, biotinylated cynomolgus CD40 (Acro Biosystem) (cynomolgus, UniProt G7PG38 21-193, biotinylated (sites not given)); experiment: as above
T4 construct: also called Bio-cCD40
Protocol: as §1, §2

human serum albumin = biological target: T5, human serum albumin (human, UniProt P02768 25-609); experiment: SPR (ProteOn XPR36), Protein #5 captured on hFAP-coated GLC chip, serum albumin as analyte, PBST
T5 construct: also called HSA
T5 sequence (P02768 25-609 limits assumed): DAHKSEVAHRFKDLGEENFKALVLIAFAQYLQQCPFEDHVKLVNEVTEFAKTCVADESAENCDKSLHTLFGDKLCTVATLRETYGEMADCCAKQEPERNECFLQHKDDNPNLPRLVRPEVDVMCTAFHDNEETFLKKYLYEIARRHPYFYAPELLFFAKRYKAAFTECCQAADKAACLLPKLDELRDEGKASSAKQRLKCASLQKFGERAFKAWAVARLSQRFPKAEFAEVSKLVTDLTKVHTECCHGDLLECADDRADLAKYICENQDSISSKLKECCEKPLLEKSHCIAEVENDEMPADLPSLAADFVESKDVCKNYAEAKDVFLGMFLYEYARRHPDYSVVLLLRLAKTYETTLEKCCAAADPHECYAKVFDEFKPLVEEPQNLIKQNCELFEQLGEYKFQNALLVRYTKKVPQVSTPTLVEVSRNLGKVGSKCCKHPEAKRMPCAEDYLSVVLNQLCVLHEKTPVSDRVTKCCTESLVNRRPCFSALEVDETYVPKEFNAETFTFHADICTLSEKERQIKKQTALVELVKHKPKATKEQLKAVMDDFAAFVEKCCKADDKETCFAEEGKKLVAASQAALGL
Protocol: as §1
(§3) ProteOn setup for Protein #5 binding to serum albumin of different species. First, human FAP (hFAP) was coated on a GLC chip (BioRad) to a level of 700 RU before 50 nM Protein #5 was immobilized as analyte for 120 s (dissociation of 0 s) at constant flow of 100 μl/min to a level of 120 RU. The binding of the serum albumin to Protein #5 was measured by injecting human serum albumin (HSA), cynomolgus serum albumin (CSA) and mouse serum albumin (MSA) in a serial dilution of 100, 33, 11 and 3.7 nM with an association of 120 s and a dissociation of 600 s at a constant flow of 100 μl/min. HSA, CSA and MSA binding was measured serially and the hFAP/Protein #5 complex was regenerated each time with 10 mM glycine pH2 for 18 s at a flow of 100 μl/min. Thus, Protein #5 had to be re-immobilized on hFAP after each regeneration step. […] The kinetic was calculated on the first 300 s of dissociation.

cynomolgus serum albumin = biological target: T6, cynomolgus serum albumin (cynomolgus, UniProt A2V9Z4 25-608); experiment: as above
T6 construct: also called CSA
T6 sequence (A2V9Z4 25-608 limits assumed): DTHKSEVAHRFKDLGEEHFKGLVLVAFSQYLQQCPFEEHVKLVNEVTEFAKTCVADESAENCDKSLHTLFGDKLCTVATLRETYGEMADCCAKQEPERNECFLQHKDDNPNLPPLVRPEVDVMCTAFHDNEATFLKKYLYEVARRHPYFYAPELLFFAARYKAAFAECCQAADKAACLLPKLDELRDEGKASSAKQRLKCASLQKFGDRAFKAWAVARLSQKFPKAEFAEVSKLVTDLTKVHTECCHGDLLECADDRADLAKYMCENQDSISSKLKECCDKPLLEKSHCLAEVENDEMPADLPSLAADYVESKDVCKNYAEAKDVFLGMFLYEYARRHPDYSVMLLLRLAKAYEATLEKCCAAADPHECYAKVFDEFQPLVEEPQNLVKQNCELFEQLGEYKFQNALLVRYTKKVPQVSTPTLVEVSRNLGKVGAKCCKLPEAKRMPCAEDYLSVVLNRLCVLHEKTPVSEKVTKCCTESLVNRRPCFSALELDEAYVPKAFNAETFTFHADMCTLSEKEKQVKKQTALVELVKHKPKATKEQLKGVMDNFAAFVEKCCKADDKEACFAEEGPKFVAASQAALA
Protocol: as §1, §3

B1: DARPin Protein #5 (designed binder)
chain: GSDLGKKLLEAARAGQDDEVRELLKAGADVNAKDYFSHTPLHLAARNGHLKIVEVLLKAGADVNAKDFAGKTPLHLAAADGHLEIVEVLLKAGADVNAQDIFGKTPADIAADAGHEDIAEVLQKAAGSPTPTPTTPTPTPTTPTPTPTGSDLGKKLLEAARAGQDDEVRILLAAGADVNAKDVLGWTPLHLAAFEGHLEIVEVLLKAGADVNAKDKKGWTPLQLAARTGHLEIVEVLLKAGADVNAKDHIGATPLHLAAWQGHPEIVEVLLKAGADVNAQDKSGKTPADLAADAGHEDIAEVLQKAAGSPTPTPTTPTPTPTTPTPTPTGSDLGKKLLQAARAGQLDEVRELLKAGADVNAKDTWGFTPLHIAAESGHLEIVEVLLKAGADVNAKDVQGRTPLHIAAHSGHLEIVEVLLKAGADVNAKDFRGWTPLHLAAWSGHLEIVEILLKAGADVNAQDKSGKTPADLAARAGHQDIAEVLQKAAGSPTPTPTTPTPTPTTPTPTPTGSDLGKKLLQAARAGQLDEVRELLKAGADVNAKDTWGFTPLHIAAESGHLEIVEVLLKAGADVNAKDVQGRTPLHIAAHSGHLEIVEVLLKAGADVNAKDFRGWTPLHLAAWSGHLEIVEILLKAGADVNAQDKSGKTPADLAARAGHQDIAEVLQKAA
notes: also called SMA136; Molecule No. 1
B1 was tested, and the binding result [1] was “no binding (tested: 3 nM (highest concentration injected))”, the binding result (mouse FAP) was “no binding (tested: 50 nM (highest concentration injected))” and the Kd [2] was 0.103 nM. The koff [2] was 0.00103 s⁻¹, the kon [2] was 1.01e+07 M⁻¹ s⁻¹ and the Kd [3] was 0.101 nM. The koff [3] was 0.000824 s⁻¹, the kon [3] was 8.25e+06 M⁻¹ s⁻¹ and the Kd (human serum albumin) was 50 nM. It also gave a koff (human serum albumin) of 0.0179 s⁻¹, a kon (human serum albumin) of 358000 M⁻¹ s⁻¹ and a Kd (cynomolgus serum albumin) of 409 nM. It also gave a koff (cynomolgus serum albumin) of 0.217 s⁻¹ and a kon (cynomolgus serum albumin) of 532000 M⁻¹ s⁻¹.
